# Experimental data as given in article PMC10825162 (Nature Communications, 2024).
# Molecular target: SARS-CoV-2 BA.1 RBD protein (SARS-CoV-2 Omicron BA.1, strain)
# Assay: SPR
# Conditions: both partners purified
binder,measurement,value
"BA7208 (antibody, V domains shown) VH: EVQLVQSGAEVKKPGESLKISCKGSGYSFTSYYWIGWVRQMPGKGLEWMGIVYPDDSDTRYSPSFQGQVTISADKSISTAYLQWSSLKASDTAMYYCVRHPGGGDWYFDLWGRGTLVTVSS VL: DIQMTQSPSTLSASVGDRVTITCRASQSISSWLAWYQQKPGKAPKLLIYKASSLESGVPSRFSGSGSGTEFTLTITSLQPDDFATYYCQQYDSFSWTFGQGTKLEIK",Kd,1.81 nM
